According to article PMC11796359, “Identification and characterization of the functional tetrameric UDP-glucose pyrophosphorylase from Klebsiella pneumoniae” (mBio, 2024):
Residue numbers refer to the chain shown, from its start. Numbers in names are those of the source.

Key:
[1] = biological target: the molecule itself; test: not stated; data not shown; KpUGP in HEPES-NaOH (pH 8.0) buffer
[2] = biological target: the molecule itself; test: SEC; Superose 6 Increase 10/300 GL; 50 mM Tris-HCl (pH 8.0), 300 mM NaCl, 10 mM MgCl2; oligomeric state calculated from elution volumes of proteins of known size
[3] = biological target: the molecule itself; test: as above; remark: listed apart in the source
[4] = biological target: the molecule itself; test: native gel or EMSA; blue native PAGE, 4.5 µg of each protein on a uniform 12% native gel, followed by in-gel activity staining
[5] = biological target: the molecule itself; test: SEC; Superdex 200 10/300 GL (KpUGP active site mutants); 50 mM Tris-HCl (pH 8.0), 300 mM NaCl, 10 mM MgCl2

B1: Klebsiella pneumoniae UDP-glucose pyrophosphorylase (galU gene product), wild type (enzyme, UniProt A6TAK9 1-300, looked up)
chain: MAALNSKVRKAVIPVAGLGTRMLPATKAIPKEMLPLVDKPLIQYVVNECIAAGITEIVLVTHSSKNSIENHFDTSFELEAMLEKRVKRQLLEEVQSICPPHVTIMQVRQGLAKGLGHAVLCAHPVVGDEPVAVILPDVILDEYESDLSRDNLAEMISRFDETGASQIMVEPVEDVTAYGVVDCKGESLKPGESVPMVGVVEKPKADVAPSNLAVVGRYVLSADIWPLLAKTPPGAGDEIQLTDAIDMLIEKETVEAYHMKGKSHDCGNKLGYMQAFVEYGIRHKTLGDDFKAWLETAVAK
notes: UDP-glucose pyrophosphorylase (galU gene product) of K. pneumoniae subsp. pneumoniae type strain DSM 30104 (ATCC 13883, NCTC 9633), cloned from genomic DNA; UniProt entry printed for the AlphaFold query; 34.6 kDa with tag; no cleavage of the tag is described; Also made from pETDuet-1 with the same oligomeric state; also called KpUGP; KpUGP wt; not shown: Strep-tagII, N-terminal, kept
[1]
  stoichiometry N: 4
[2]
  stoichiometry N: 4.5

B2: KpUGP E238R (enzyme)
chain: B1 chain with E238R
notes: UDP-glucose pyrophosphorylase (galU gene product) of K. pneumoniae DSM 30104; mutant of Strep-KpUGP that mimics R237 of KpGalF; tag as in m1; no cleavage described
[3]
  stoichiometry N: 3.1

B3: KpUGP D38A (enzyme)
chain: B1 chain with D38A
notes: UDP-glucose pyrophosphorylase (galU gene product) of K. pneumoniae DSM 30104; mutant of Strep-KpUGP; tag as in m1; no cleavage described
[4]
  stoichiometry N: 4
[2]
  stoichiometry N: 4.1

B4: KpUGP D38N (enzyme)
chain: B1 chain with D38N
notes: as for B3
[4]
  stoichiometry N: 4
[2]
  stoichiometry N: 4.2

B5: KpUGP E32A (enzyme)
chain: B1 chain with E32A
notes: UDP-glucose pyrophosphorylase (galU gene product) of K. pneumoniae DSM 30104; active site mutant of Strep-KpUGP; tag as in m1; the discussion speaks only of the mutant of E32; also called E32 mutant
[5]
  stoichiometry N: 2

B6: KpUGP K10R (enzyme)
chain: B1 chain with K10R
notes: as for B3
[4]
  stoichiometry N: 4
[2]
  stoichiometry N: 4.5

B7: Klebsiella pneumoniae GalF (galF gene product), wild type (natural protein, UniProt Q48447 1-298, looked up)
chain: MNMANLKAVIPVAGLGMHMLPATKAIPKEMLPIVDKPMIQYIVDEIVAAGIKEIVLVTHSSKNAVENHFDTSYELEALLEQRVKRQLLAEVQAICPPGVTIMNVRQAQPLGLGHSILCARPVVGDNPFVVVLPDIILDGGTADPLRYNLAAMIARFNETGRSQVLAKRMPGDLSEYSVIQTKEPMVAEGQVARIVEFIEKPDEPQTLDSDLMAVGRYVLSADIWAELERTEPGAWGRIQLTDAIAELAKKQSVDAMLMTGESYDCGKKMGYMQAFVTYGMRNLKEGAKFRESIKKLLA
notes: GalF (galF gene product) of K. pneumoniae subsp. pneumoniae type strain DSM 30104 (ATCC 13883, NCTC 9633), cloned from genomic DNA into MCS1 of pETDuet-1; UniProt entry printed for the AlphaFold query; 34.3 kDa with tag; no cleavage of the tag is described; also called KpGalF; KpGalF wt
[3]
  stoichiometry N: 1.9

B8: KpGalF M17T/H18R/S115A/S177G/R237E (natural protein)
chain: B7 chain with M17T, H18R, S115A, S177G, R237E
notes: GalF (galF gene product) of K. pneumoniae DSM 30104; mutant of His-KpGalF; also called KpGalF quintuple mutant; quintuple revertant mutant
[3]
  stoichiometry N: 1.7
